# From article PMC5053157, “Crystal structure of yeast monothiol glutaredoxin Grx6 in complex with a glutathione-coordinated [2Fe–2S] cluster” (Acta Crystallographica. Section F, Structural Biology …, 2016)
# “And” between values parts separate entries of the source, which are not always exact repeats. Identical values can stand only once.
# Target: the molecule itself
# Experiment: SEC; HiLoad 16/60 Superdex 75; 20 mM NaCl, 50 mM Tris-HCl pH 8.0, 2 mM EDTA, 10 mM GSH; apparent molecular masses
protein,measurement,value
Saccharomyces cerevisiae glutaredoxin Grx6 without the signal peptide (residues Lys37-Asn231) (enzyme) KEETSKAFSTNMDNMAGGSSREYAAMPTSTTNKGSSEVDEEINEIKQKVGLQQPIASVDDSLSAIKNDKGSRITKAFNVQKEYSLILDLSPIIIFSKSTCSYSKGMKELLENEYQFIPNYYIIELDKHGHGEELQEYIKLVTGRGTVPNLLVNGVSRGGNEEIKKLHTQGKLLESLQVWSDGKFSVEQREKPSNNLEHHHHHH,stoichiometry N,2 and 4
